Source: publication PMC7043357

Biological target: T1, Rop (UniProt P03051 1-63)
T1 sequence: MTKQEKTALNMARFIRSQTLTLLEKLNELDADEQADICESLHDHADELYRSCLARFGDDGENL
Assay: EMSA

B1: RNA1-U6/RNA2-WT kissing dimer (structured_RNA)
RNA 1: GGCAGCUUUUUUUUGGUAGUUUUUUGCUGCC
RNA 2: GCACCGCUACCAACGGUGC
B1: binds.
